In patent US20020049303A1 (OKLAHOMA MEDICAL RESEARCH FOUNDATION, published 2002):
Where no end group is shown, it is not given here.

B1: OM99-1: Val-Asn-Leu*Ala-Ala-Glu-Phe (peptide)
peptide: VNLAAEF
modifications: also: Leu-Ala peptide bond replaced by hydroxyethylene isostere -CH(OH)-CH2-
notes: also called OMR99-1
B2: OM99-2: Glu-Val-Asn-Leu*Ala-Ala-Glu-Phe (peptide)
peptide: EVNLAAEF
modifications: also: Leu-Ala peptide bond replaced by hydroxyethylene isostere -CH(OH)-CH2-

Key:
[1] = molecular target: T1, recombinant memapsin 2 (M2pd), auto-activated from pro-M2pd at pH 4.0 (human, UniProt P56817 25-419, limits assumed); test: enzyme inhibition with a synthetic fluorogenic peptide substrate
T1 construct: also called beta-secretase
T1 sequence (P56817 25-419 limits assumed): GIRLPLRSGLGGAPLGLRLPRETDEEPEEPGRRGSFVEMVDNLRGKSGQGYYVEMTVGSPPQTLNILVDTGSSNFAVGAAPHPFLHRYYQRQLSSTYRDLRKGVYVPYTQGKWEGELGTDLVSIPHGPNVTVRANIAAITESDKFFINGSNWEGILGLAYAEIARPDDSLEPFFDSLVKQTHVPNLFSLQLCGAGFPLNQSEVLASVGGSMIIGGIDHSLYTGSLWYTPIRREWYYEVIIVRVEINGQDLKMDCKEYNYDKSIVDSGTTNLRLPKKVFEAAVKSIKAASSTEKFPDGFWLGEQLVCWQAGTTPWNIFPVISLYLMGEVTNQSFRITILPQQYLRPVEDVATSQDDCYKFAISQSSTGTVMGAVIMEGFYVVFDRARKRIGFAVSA
Protocol: Enzyme activity was measured as described above, but with the addition of either OM99-1 or OM99-2.

[2] = molecular target: T1, recombinant memapsin 2 (M2pd), …; test: comparison of Ki of the inhibitor without P4 Glu with that of OM99-2
[3] = molecular target: T1, recombinant memapsin 2 (M2pd), …; test: Ki quoted for the inhibitor used in the crystal trials; assay not described at this place

Binder	Ki [1] [nM]	fold increase in Ki against OM99-2 [2] [fold]	Ki [3] [nM]
B1	30	10	
B2			10
